Test results as given in patent publication US20130011868A1.

Columns and labels:
[1] = molecular target: rat GPVI-hFc fusion protein (rat; mouse; human); test: ELISA, immobilized rat GPVI-hFc, control
[2] = molecular target: hGPVI-mL9-hFc substituted mutant protein (human) (UniProt Q9HCN6); test: ELISA, immobilized hGPVI-mL9-hFc
[3] = molecular target: human GPVI-hFc fusion protein (human) (UniProt Q9HCN6); test: ELISA, immobilized hGPVI-hFc; ++ = absorbance 1.0 to 2.0
[4] = molecular target: human GPVI-hFc fusion protein (human) (UniProt Q9HCN6); test: ELISA, immobilized hGPVI-hFc; +++ = absorbance greater than 2.0
[5] = molecular target: human GPVI-hFc fusion protein (human) (UniProt Q9HCN6); test: ELISA, immobilized hGPVI-hFc; + = absorbance 0.5 up to 1.0

Chain of rat GPVI-hFc fusion protein (rat; mouse; human) (P0C191 205-265): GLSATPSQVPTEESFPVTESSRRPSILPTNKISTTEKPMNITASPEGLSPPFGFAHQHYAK

Row | Molecule | absorbance at 450 nm (absorbance 450 nm) [1] | absorbance [2] [od] | absorbance [3] [od] | absorbance [4] [od] | absorbance [5] [od]
1 | F1245-7-1 (antibody, from a related filing, V domains shown) VH: QVQLQQPGAELVKPGASVKLSCKASGYTFTSYWMHWVKQRPGQGLEWIGMIHPNSGSTNYNEKFKSKATLTVDKSSSTAYMQLSSLTSEDSAVYYCASPVTAVVEYYFDYWGQGTTLTVSS VL: SIVMTQTPKFLLVSAGDRVTITCKASQSVSNDVAWYQQKPGQSPKLLIYYASNRYTGVPDRFTGSGYGTDFTFTISTVQAEDLAVYFCQQDYSSLTFGSGTKLEIKR |  | < 0.5 | 1 to 2 |  | 
2 | F1232-37-2 (antibody, from a related filing, V domains shown) VH: VQLQQSGPELVRPGESVKISCKGSGYTFTDYAIHWVKLSHAKSLEWIGVISIYYDDTNYNQKFKGKATMTVDKSSSTAYLELARLTSEDSAIYYCARRRDSSGPYAMDYWGQGTSVTVSS VL: DIVLTQSPASLAVSLGQRATISCRASESVDSYGNSFMHWYQQKPGQPPKLLIYRASNLESGIPARFSGSGSRTDFTLTINPVEADDVATYYCQQSNEDPYTFGGGTKLEIKR | 0.137 | < 0.5 |  |  | 
3 | F1246-1-1 (antibody, from a related filing, V domains shown) VH: EVQLVESGGDLVKPGGSLKLSCAASGFTFSSYGMSWVRQTPDKRLEWVATISNGGTYTYYPDSVKGRFTISRDNAKNTLYLQMSSLKSDDTAMYYCGRLRDYYAMDYWGQGTSVTVSS VL: DIVLTQSPASLAVSLGQRATISCRASESVDSYGNSFMHWYQQKPGQPPKLLIYRASNLESGIPARFSGSGSRTDFTLTINPVEADDVATYYCQQSNEDPWTFGGGTKLEIKR |  | < 0.5 | 1 to 2 |  | 
4 | F1245-4-1 (antibody, from a related filing, V domains shown) VH: QVQLQQPGAELVKPGASVKLSCKASGCTFTSYWMHWVKQRPGQGLEWIGMIHPNSDNTNYNEKFKSKATLTVDKSSSTAYMHLSSLTSEDSAVYYCATHYYDYVDYWGQGTTLTVSS VL: NIVMTQTPKFLLVSAGDRVTITCKASQSVSNDVAWYQQKPGQSPKLLIYYASNRYTGVPDRFTGSGYGTDFTFTISTVQAEDLAVYFCQQDYSSPWTFGGGTKLEIKR |  | < 0.5 |  | > 2 | 
5 | F1245-5-1 (antibody, from a related filing, V domains shown) VH: QVQLQQPGAELVKPGASVKLSCKASGYTFISYWMHWVKQRPGQGLEWIGMIHPNSGSTHYNEKFKSKATLTVDKSSSTAYMQLSSLTSEDSAVYYCARGGVTPVAYWGQGTLVTVSA VL: SIVMTQTPKFLLVSAGDRVTITCKASQSVSNDVAWYQQKPGQSPKLLIYYASNRYTGVPDRFTGSGYGTDFTFTISTVQAEDLAVYFCQQDYSSPWTFGGGTKLEIKR |  | < 0.5 | 1 to 2 |  | 
6 | F1245-6-2 (antibody, from a related filing, V domains shown) VH: QVQLQQPGAELVKPGASVKLSCKASGYTFTSYWMHWVKQRPGQGLEWIGMIHPNSGSTNYNEKFKSKATLTVDKSSSTAYMQLSSLTSEDSAVYYCARGGVTPVAYWGQGTLVTVSA VL: SIVMTQTPKFLLVSAGDRVTITCKASQSVSNDVAWYQQKPGQSPKLLIYYASNRYTGVPYRFTGSGYGTDFTFTISTVQAEDLAVYFCQQDYSSPWTFGGGTKLEIKR |  | < 0.5 | 1 to 2 |  | 

The remaining lines, values ahead:

Row | absorbance at 450 nm (absorbance 450 nm) [1] | absorbance [2] [od] | absorbance [3] [od] | absorbance [4] [od] | absorbance [5] [od] | Molecule
7 | 0.123 |  |  |  |  | normal mouse IgG (antibody)
8 |  | < 0.5 |  | > 2 |  | F1249-24-1 (antibody, from a related filing, V domains shown) VH: QVQLQQSGAELVRPGVSVKISCKGSGYTFTDYAMHWVKQSHAKSLEWIGVISTYYGDTSYNQKFKGKATMTVDKSSSTAYMELARLTSEDSAIYYCARAEDYDPWFAYWGQGTLVTVSA VL: DIVLTQSPASLAVSLGQRATISCRASESVDSYGNSFMHWYQQKPGQPPKLLIYRASNLESGIPARFSGSGSRTDFTLTINPVEADDVATYYCQQSDEDPLTFGAGTKLELKR
9 |  | < 0.5 |  |  | 0.5 to 1 | F1249-3-2 (antibody, from a related filing, V domains shown) VH: EVQLVESGGGLVKPGGSLKLSCAASGFTFSSYGMSWVRQTPDKRLEWVATISSGGSYTYYSDSVKGRFTISRDNAKNNLYLQLSSLKSQDTAIYYCARDSGYFDYWGQGTTLTVSS VL: NIVLTQSPASLAVSLGQRATISCRASESVDSYGNSFMHWYQQKPGQPPKLLIYLASNLESGVPARFSGSGSRTDFTLTIDPVEADDAATYYCQQNNEDPRTFGGGTKLEIKR
10 |  | < 0.5 |  | > 2 |  | F1249-30-1 (antibody, from a related filing, V domains shown) VH: QVQLQQSGAELVRPGVSVKISCKGSGYTFTDYAMHWVKQSHAKSLEWIGVISTYYGDTSYNQKFKGKAAMTVDKSSSTAYMELARLTSDDSAIYYCARAEDYDPWFAYWGQGTLVTVSA VL: DIVLTQSPASLAVSLGQRATISCRASESVDSYGNSFMHWYQQKPGQPPKLLIYRASNLESGIPARFSGSGSRTDFTLTINPVEADDVATYYCQQSDEDPLTFGAGTKLELKR
11 |  | < 0.5 |  | > 2 |  | F1249-20-1 (antibody, from a related filing, V domains shown) VH: QVQLQQSGAELVRPGVSVKISCKGSGYTFTDYAMHWVKQSHAKSLEWIGVISTYYGDTSYNQKFKGKATMTVDKSSSTAYMELARLTSEDSAIYYCARAEDYDPWFAYWGQGTLVTVSA VL: DIVLTQSPASLAVSLGQRATISCRASESVDSYGNSFMYWYQQKPGQPPKLLIYRASNLESGIPARFSGSGSRTDFTLTINPVEADDVATYYCQQSDEDPLTFGAGTKLELKR
12 |  | < 0.5 |  | > 2 |  | F1249-18-2 (antibody, from a related filing, V domains shown) VH: QVQLQQPGAELVKPGASVKLSCKASGYTFTSYWMHWLKQRPGQGLEWIGMIHPNSDITNYNEKFKNKATLTVDKSSSTAYMQLSSLTSEDSAVYYCARSGDYYAMDYWGQGTSVTVSS VL: SIVMTQTPKFLLVSAGDRVTITCKASQSVSNDVAWYQQKPGQSPKLLIYYASNRYTGVPDRFTGSGYGTDFTFTISTVQAEDLAVYFCQQDYSSPPTFGGGTKLEIKR
13 |  | < 0.5 | 1 to 2 |  |  | F1249-5-1 (antibody, from a related filing, V domains shown) VH: QVQLQQPGAELVKPGASVKLSCKASGYTFTSYWMHWLKQRPGQGLEWIGMIHPNSDITNYNEKFKNKATLTVAKSSSTAYMQLSSLTSEDSAVYYCARLGDYYAMDYWGQGTSVTVSS VL: SIVMTQTPKFLLVSAGDRVTITCKASQSVSNDVTWYQQKPGQSPKLLIYYASNRYTGVPDRFTGSGYGTDFTFTISTVQAEDLAVYFCQQDYSSPPTFGGGTKLEIKR
